Source: US20220380445A1 (Ablynx, published 2022)
Substitutions are numbered along the chain they refer to. In names and notes the source's numbering stands.

Tests used:
rat serum albumin = rat serum albumin (rat, UniProt P02770 25-608); assay: ProteOn kinetic analysis
human serum albumin [1] = target: T1, human serum albumin (human, UniProt P02768 25-609); assay: ProteOn kinetic analysis
T1 construct: Amine-coupled to the chip (EDC/NHS); also called HSA

mouse serum albumin = mouse serum albumin (mouse, UniProt P07724 25-608); assay: ProteOn kinetic analysis
cyno serum albumin = cyno serum albumin (cyno, UniProt A2V9Z4 25-608); assay: ProteOn kinetic analysis
cyno serum albumin, sequence (A2V9Z4 25-608 limits assumed): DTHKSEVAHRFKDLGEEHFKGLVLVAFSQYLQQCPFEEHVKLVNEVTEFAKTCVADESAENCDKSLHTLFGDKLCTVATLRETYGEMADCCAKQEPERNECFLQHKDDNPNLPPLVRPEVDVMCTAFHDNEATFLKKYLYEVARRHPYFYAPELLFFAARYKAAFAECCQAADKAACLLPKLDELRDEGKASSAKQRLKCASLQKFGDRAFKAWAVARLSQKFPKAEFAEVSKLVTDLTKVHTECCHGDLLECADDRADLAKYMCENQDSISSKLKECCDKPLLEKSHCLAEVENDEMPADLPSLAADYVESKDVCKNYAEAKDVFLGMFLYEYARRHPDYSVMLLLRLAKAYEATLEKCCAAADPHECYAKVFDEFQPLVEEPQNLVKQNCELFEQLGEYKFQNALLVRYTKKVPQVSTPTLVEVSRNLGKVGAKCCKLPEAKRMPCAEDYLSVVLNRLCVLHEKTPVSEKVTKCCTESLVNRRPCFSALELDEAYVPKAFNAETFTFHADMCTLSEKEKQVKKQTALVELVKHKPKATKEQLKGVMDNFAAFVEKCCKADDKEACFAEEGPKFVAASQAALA

guinea pig serum albumin = guinea pig serum albumin (guinea pig); assay: ProteOn kinetic analysis
human serum albumin [2] = target: T1, human serum albumin; assay: ProteOn SPR; Nanobody on immobilized human serum albumin; Langmuir simultaneous ka/kd fit
Method: (§1) PBS/Tween (phosphate buffered saline, pH7.4, 0.005% Tween20) was used as running buffer and the experiments were performed at 25° C. […] After immobilization, surfaces were deactivated with ethanolamine HCl (flow rate 30 μl/min). Nanobodies were injected for 2 minutes at 45 μl/min over the HSA surface to render a Nanobody capture level of approximately 200 RU. […] After each cycle (i.e. before a new Nanobody capture and blood sample injection step) the HSA surfaces were regenerated with a 2 minute injection of HCl (100 mM) at 45 μl/min. Sensorgram processing and data analysis was performed with ProteOn Manager 3.1.0 (Bio-Rad Laboratories, Inc.).
(§2) Also, for the serum albumin binders tested, a kinetic analysis was performed of the binding interaction with the immobilized serum albumin (Langmuir, simultaneous ka/kd model).

human serum albumin [3] = target: T1, human serum albumin; assay: as above; remark: listed apart in the source
Method: as §1, §2

human serum albumin [4] = target: T1, human serum albumin; assay: as above; remark: listed apart in the source
Method: as §1, §2

human serum albumin [5] = target: T1, human serum albumin; assay: as above; remark: listed apart in the source
Method: as §1, §2

human serum albumin [6] = target: T1, human serum albumin; assay: as above; remark: listed apart in the source
Method: as §1, §2

human serum albumin [7] = target: T1, human serum albumin; assay: as above; remark: listed apart in the source
Method: as §1, §2

T1 sequence (P02768 25-609 limits assumed): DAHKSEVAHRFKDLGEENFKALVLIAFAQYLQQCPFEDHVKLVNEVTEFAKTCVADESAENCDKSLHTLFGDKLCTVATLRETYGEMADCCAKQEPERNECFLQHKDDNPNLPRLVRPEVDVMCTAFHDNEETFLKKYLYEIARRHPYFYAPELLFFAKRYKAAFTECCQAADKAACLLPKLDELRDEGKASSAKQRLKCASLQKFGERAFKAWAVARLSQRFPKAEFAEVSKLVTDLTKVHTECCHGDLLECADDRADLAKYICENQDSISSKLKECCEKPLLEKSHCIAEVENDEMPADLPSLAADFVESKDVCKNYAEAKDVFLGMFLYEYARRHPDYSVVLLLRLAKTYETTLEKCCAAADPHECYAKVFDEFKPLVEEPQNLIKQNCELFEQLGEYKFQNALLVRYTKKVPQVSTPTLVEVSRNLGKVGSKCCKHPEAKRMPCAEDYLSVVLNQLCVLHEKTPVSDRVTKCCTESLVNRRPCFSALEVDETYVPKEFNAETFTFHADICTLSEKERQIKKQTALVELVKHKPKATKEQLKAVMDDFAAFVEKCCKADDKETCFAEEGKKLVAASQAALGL
rat serum albumin, sequence (P02770 25-608 limits assumed): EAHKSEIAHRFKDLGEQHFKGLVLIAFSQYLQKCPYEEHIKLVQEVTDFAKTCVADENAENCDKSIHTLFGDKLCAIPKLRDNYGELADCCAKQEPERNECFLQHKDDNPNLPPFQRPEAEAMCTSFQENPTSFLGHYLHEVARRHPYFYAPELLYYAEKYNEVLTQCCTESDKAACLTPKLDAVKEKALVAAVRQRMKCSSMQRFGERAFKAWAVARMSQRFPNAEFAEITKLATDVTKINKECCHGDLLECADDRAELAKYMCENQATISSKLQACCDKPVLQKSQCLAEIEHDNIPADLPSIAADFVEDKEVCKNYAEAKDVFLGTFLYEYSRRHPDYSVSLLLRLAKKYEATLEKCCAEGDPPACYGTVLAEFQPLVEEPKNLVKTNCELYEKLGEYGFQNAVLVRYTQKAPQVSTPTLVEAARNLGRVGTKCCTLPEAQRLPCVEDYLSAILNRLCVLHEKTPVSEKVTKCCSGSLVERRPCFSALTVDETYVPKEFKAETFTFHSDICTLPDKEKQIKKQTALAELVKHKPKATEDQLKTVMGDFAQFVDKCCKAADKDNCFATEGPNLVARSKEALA

B1: SEQ ID NO 10 (VHH)
VHH: EVQLVESGGGVVQPGGSLRLSCAASGFTFRSFGMSWVRQAPGKGPEWVSSISGSGSDTLYADSVKGRFTISRDNSKNTLYLQMNSLRPEDTALYYCTIGGSLSRSSQGTLVTVSS
notes: also called R at position 30
Kd (rat serum albumin): 180 nM | koff (rat serum albumin): 0.13 s⁻¹ | kon (rat serum albumin): 710000 M⁻¹ s⁻¹ | Kd (human serum albumin [1]): 0.83 nM | koff (human serum albumin [1]): 0.00084 s⁻¹ | kon (human serum albumin [1]): 1e+06 M⁻¹ s⁻¹ | Kd (mouse serum albumin): 6.8 nM | koff (mouse serum albumin): 0.0073 s⁻¹ | kon (mouse serum albumin): 1.1e+06 M⁻¹ s⁻¹ | Kd (cyno serum albumin): 0.89 nM | koff (cyno serum albumin): 0.00081 s⁻¹ | kon (cyno serum albumin): 910000 M⁻¹ s⁻¹ | Kd (guinea pig serum albumin): 5.1 nM | koff (guinea pig serum albumin): 0.0063 s⁻¹ | kon (guinea pig serum albumin): 1.2e+06 M⁻¹ s⁻¹

B2: Reference A+L11V+V89T+C-terminal alanine, N-terminal HIS6 tag (VHH)
VHH: B1 VHH with L93T
Kd (human serum albumin [2]): 7.3 nM | koff (human serum albumin [2]): 0.0023 s⁻¹ | kon (human serum albumin [2]): 310000 M⁻¹ s⁻¹

B3: SEQ ID NO 145 (VHH)
VHH: B1 VHH with E1D, R30T, L93A, S106G
notes: also called T at position 30
Kd (rat serum albumin): 540 nM | koff (rat serum albumin): 0.23 s⁻¹ | kon (rat serum albumin): 420000 M⁻¹ s⁻¹ | Kd (human serum albumin [1]): 2.1 nM | koff (human serum albumin [1]): 0.0014 s⁻¹ | kon (human serum albumin [1]): 690000 M⁻¹ s⁻¹ | Kd (mouse serum albumin): 27 nM | koff (mouse serum albumin): 0.02 s⁻¹ | kon (mouse serum albumin): 750000 M⁻¹ s⁻¹ | Kd (cyno serum albumin): 2.3 nM | koff (cyno serum albumin): 0.0015 s⁻¹ | kon (cyno serum albumin): 640000 M⁻¹ s⁻¹ | Kd (guinea pig serum albumin): 13 nM | koff (guinea pig serum albumin): 0.01 s⁻¹ | kon (guinea pig serum albumin): 790000 M⁻¹ s⁻¹

B4: SEQ ID NO 127 (VHH)
VHH: B1 VHH with E1D, R30T, S106G
notes: also called T at position 30
Kd (rat serum albumin): 490 nM | koff (rat serum albumin): 0.22 s⁻¹ | kon (rat serum albumin): 450000 M⁻¹ s⁻¹ | Kd (human serum albumin [1]): 2 nM | koff (human serum albumin [1]): 0.0014 s⁻¹ | kon (human serum albumin [1]): 730000 M⁻¹ s⁻¹ | Kd (mouse serum albumin): 21 nM | koff (mouse serum albumin): 0.017 s⁻¹ | kon (mouse serum albumin): 820000 M⁻¹ s⁻¹ | Kd (cyno serum albumin): 2.1 nM | koff (cyno serum albumin): 0.0014 s⁻¹ | kon (cyno serum albumin): 690000 M⁻¹ s⁻¹ | Kd (guinea pig serum albumin): 8.6 nM | koff (guinea pig serum albumin): 0.0075 s⁻¹ | kon (guinea pig serum albumin): 870000 M⁻¹ s⁻¹

B5: Reference A+L11V+V89L+S104A+C-terminal alanine, N-terminal HIS6 tag (VHH)
VHH: B1 VHH with S106A
Kd (human serum albumin [3]): 30 nM | koff (human serum albumin [3]): 0.0022 s⁻¹ | kon (human serum albumin [3]): 72000 M⁻¹ s⁻¹

B6: Reference A+L11V+V89S+T110K+C-terminal alanine, N-terminal HIS6 tag (VHH)
VHH: HHHHHHEVQLVESGGGVVQPGGSLRLSCAASGFTFRSFGMSWVRQAPGKGPEWVSSISGSGSDTLYADSVKGRFTISRDNSKNTLYLQMNSLRPEDTASYYCTIGGSLSRSSQGTLVKVSSA
Kd (human serum albumin [4]): 7.2 nM | koff (human serum albumin [4]): 0.0015 s⁻¹ | kon (human serum albumin [4]): 200000 M⁻¹ s⁻¹

B7: Reference A+L11V+V89T+T110K+C-terminal alanine, N-terminal HIS6 tag (VHH)
VHH: B6 VHH with S99T
Kd (human serum albumin [2]): 7.6 nM | koff (human serum albumin [2]): 0.0021 s⁻¹ | kon (human serum albumin [2]): 280000 M⁻¹ s⁻¹

B8: Reference A+L11V+V89L+S104G+C-terminal alanine, N-terminal HIS6 tag (VHH)
VHH: B1 VHH with S106G
Kd (human serum albumin [5]): 8.3 nM | koff (human serum albumin [5]): 0.0022 s⁻¹ | kon (human serum albumin [5]): 260000 M⁻¹ s⁻¹

B9: Reference A+L11V+V89T+S104T+C-terminal alanine, N-terminal HIS6 tag (VHH)
VHH: B1 VHH with L93T, S106T
Kd (human serum albumin [2]): 12 nM | koff (human serum albumin [2]): 0.0033 s⁻¹ | kon (human serum albumin [2]): 280000 M⁻¹ s⁻¹

B10: Reference A+L11V+S31D+V89L+C-terminal alanine, N-terminal HIS6 tag (VHH)
VHH: B1 VHH with S31D
Kd (human serum albumin [6]): 20 nM | koff (human serum albumin [6]): 0.0032 s⁻¹ | kon (human serum albumin [6]): 160000 M⁻¹ s⁻¹

B11: Reference A+L11V+V89N+T110K+C-terminal alanine, N-terminal HIS6 tag (VHH)
VHH: B6 VHH with S99N
Kd (human serum albumin [4]): 7.3 nM | koff (human serum albumin [4]): 0.0016 s⁻¹ | kon (human serum albumin [4]): 220000 M⁻¹ s⁻¹

B12: Reference A+L11V+R30T+V89L+C-terminal alanine, N-terminal HIS6 tag (VHH)
VHH: B1 VHH with R30T
Kd (human serum albumin [6]): 22 nM | koff (human serum albumin [6]): 0.0026 s⁻¹ | kon (human serum albumin [6]): 120000 M⁻¹ s⁻¹

B13: SEQ ID NO 129 (VHH)
VHH: B1 VHH with E1D, R30T, L93T, S106G
notes: also called T at position 30
Kd (rat serum albumin): 490 nM | koff (rat serum albumin): 0.21 s⁻¹ | kon (rat serum albumin): 430000 M⁻¹ s⁻¹ | Kd (human serum albumin [1]): 2.1 nM | koff (human serum albumin [1]): 0.0015 s⁻¹ | kon (human serum albumin [1]): 710000 M⁻¹ s⁻¹ | Kd (mouse serum albumin): 27 nM | koff (mouse serum albumin): 0.021 s⁻¹ | kon (mouse serum albumin): 770000 M⁻¹ s⁻¹ | Kd (cyno serum albumin): 2.4 nM | koff (cyno serum albumin): 0.0015 s⁻¹ | kon (cyno serum albumin): 640000 M⁻¹ s⁻¹ | Kd (guinea pig serum albumin): 13 nM | koff (guinea pig serum albumin): 0.0098 s⁻¹ | kon (guinea pig serum albumin): 790000 M⁻¹ s⁻¹

B14: Reference A+L11V+V89S+C-terminal alanine, N-terminal HIS6 tag (VHH)
VHH: B1 VHH with L93S
Kd (human serum albumin [6]): 11 nM | koff (human serum albumin [6]): 0.0017 s⁻¹ | kon (human serum albumin [6]): 160000 M⁻¹ s⁻¹

B15: Reference A+L11V+V89A+T110K+C-terminal alanine, N-terminal HIS6 tag (VHH)
VHH: B6 VHH with S99A
Kd (human serum albumin [5]): 6.5 nM | koff (human serum albumin [5]): 0.0018 s⁻¹ | kon (human serum albumin [5]): 270000 M⁻¹ s⁻¹

B16: Reference A+L11V+V89L+S101E+C-terminal alanine, N-terminal HIS6 tag (VHH)
VHH: B1 VHH with S103E
Kd (human serum albumin [3]): 30 nM | koff (human serum albumin [3]): 0.0044 s⁻¹ | kon (human serum albumin [3]): 150000 M⁻¹ s⁻¹

B17: Reference A+L11V+V89L+S101G+C-terminal alanine, N-terminal HIS6 tag (VHH)
VHH: B1 VHH with S103G
Kd (human serum albumin [3]): 16 nM | koff (human serum albumin [3]): 0.0017 s⁻¹ | kon (human serum albumin [3]): 110000 M⁻¹ s⁻¹

B18: Reference A+L11V+V89L+R102D+C-terminal alanine, N-terminal HIS6 tag (VHH)
VHH: B1 VHH with R104D
Kd (human serum albumin [7]): 82 nM | koff (human serum albumin [7]): 0.0051 s⁻¹ | kon (human serum albumin [7]): 62000 M⁻¹ s⁻¹

B19: Reference A+L11V+V89L+S101H+C-terminal alanine, N-terminal HIS6 tag (VHH)
VHH: B1 VHH with S103H
Kd (human serum albumin [7]): 24 nM | koff (human serum albumin [7]): 0.0026 s⁻¹ | kon (human serum albumin [7]): 110000 M⁻¹ s⁻¹

B20: Reference A+L11V+V89N+C-terminal alanine, N-terminal HIS6 tag (VHH)
VHH: B1 VHH with L93N
Kd (human serum albumin [4]): 3.1 nM | koff (human serum albumin [4]): 0.0036 s⁻¹ | kon (human serum albumin [4]): 1.2e+06 M⁻¹ s⁻¹

B21: Reference A+L11V+V89A+C-terminal alanine, N-terminal HIS6 tag (VHH)
VHH: B1 VHH with L93A
Kd (human serum albumin [5]): 7.3 nM | koff (human serum albumin [5]): 0.0019 s⁻¹ | kon (human serum albumin [5]): 260000 M⁻¹ s⁻¹
